Data published in WO1992011383A1.

Biological target: recombinant human TNF-alpha (human) (UniProt P01375)
Assay: Scatchard analysis in solution: 125I-TNF and unlabelled TNF, antibody captured on anti-IgG agarose beads

Sequence of UniProt P01375 (P01375 77-233 limits assumed): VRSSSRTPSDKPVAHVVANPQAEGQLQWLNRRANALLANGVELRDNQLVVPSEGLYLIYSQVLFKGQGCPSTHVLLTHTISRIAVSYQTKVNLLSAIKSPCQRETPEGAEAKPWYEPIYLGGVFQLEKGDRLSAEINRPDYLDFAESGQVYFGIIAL

Kd: 0.14 nM
Substance: CDP571 (CDR-grafted CB0010, gEU light chain / 2hEUg heavy chain) (antibody)
